Where “and” joins values, the source holds several entries; their conditions need not be identical. Identical values can stand only once.
Assays:
IL-1RAP = assay: Immunostaining of FDA standard frozen normal tissue array; format: binding, human; parameters: key to Staining intensity (0 to 3+): negative (0); weak staining (1+); moderate staining (2+); strong staining (3+); settings: for Staining intensity (0 to 3+): replicates
Description: FIG. 13: (A) Tissue microarray. Representative #A3C3 staining of an US Food and Drug Administration standard frozen tissue array, including 90 tissue cores (30 organs) of 3 individual donors per organ (US Biomax, Rockville, Md., USA). Immunostaining was detected using the UltraView Universal DAB Detection Kit (Ventana, USA). Images were acquired and analyzed with NDP.view 2.0 software. […] (Scale bars, 100 μm.) High IL-1RAP (KU812) or negative (Raji)-expressing cell lines were respectively used as positive or negative controls. (B) IL-1RAP R&D (red) or #A3C3 (blue) staining of HMEC-1 dermal endothelial cell line. Isotype IgG1 (gray) is depicted as overlay. RFI is provided for both staining.
In order to study specific or non-target tissue binding, FDA standard frozen tissue arrays, including 90 tissue cores (30 organs) of 3 individual donors per organ (US Biomax, Rockville, United States) were incubated as previously described. Immunostaining was detected using UltraView Universal DAB Detection Kit (Ventana, USA). Images were acquired and analyzed with NDP.view 2 software. High IL-1RAP (KU812) or negative (Raji) expressing cell lines were respectively used as positive or negative controls. The staining intensity was graduated as follows: negative (0), weak staining (1+), moderate staining (2+), or strong staining (3+). […]

[1] = molecular target: T1, IL-1RAP recombinant protein (Homo sapiens, UniProt Q9NPH3); assay: ELISA detection of recombinant IL-1RAP protein; format: binding
T1 construct: recombinant fusion protein consisting of the extra cellular part of IL-1RAP (NM_002182.2, NCBI) and the Fc-part of human IgG1; purchased R&D Systems
T1 sequence (Q9NPH3 21-367 limits assumed): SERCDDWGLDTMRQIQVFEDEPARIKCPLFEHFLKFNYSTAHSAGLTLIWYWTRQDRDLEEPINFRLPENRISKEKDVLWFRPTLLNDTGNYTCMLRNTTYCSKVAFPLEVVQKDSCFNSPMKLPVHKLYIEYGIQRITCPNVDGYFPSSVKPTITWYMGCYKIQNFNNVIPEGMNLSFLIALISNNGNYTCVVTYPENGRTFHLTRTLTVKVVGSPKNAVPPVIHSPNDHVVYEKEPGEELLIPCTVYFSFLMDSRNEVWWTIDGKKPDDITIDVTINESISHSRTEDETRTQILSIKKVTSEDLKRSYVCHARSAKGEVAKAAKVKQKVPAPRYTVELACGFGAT
Description: Anti-human Fc antibody was coated on a bottom of a plastic ELISA plate.

AML blasts = assay: Flow cytometry on primary cells from AML patients; format: cell-based, human; settings: all subtypes, n=30
Description: FIG. 3: Flow cytometry-gating strategy on AML primary samples of patients. RFI is provided for blasts and monocytes subpopulations (Left). Percentage of IL-1RAP+ within AML blasts and monocytes, CD123+ and IL-1RAP+/CD123+ cells within AML Blasts in a cohort of routine AML (all subtypes) patients (n=30) (Right, up). RFI is also provided (Right, bottom).
For primary samples of bone marrow or peripheral bloods of AML patients, the murine IL-1RAP mAb (#E3C3) was included in a panel allowing to detect CD45, CD34, CD38, CD33, CD123, and CD14 (for monocytes). Stained cells were collected by a CANTO II cytometer (BD Biosciences, Le Pont-de-Claix, France) and analyzed by DIVA 6.1 software (BD Biosciences, Le Pont-de-Claix, France).

Sequence of IL-1RAP (Q9NPH3 21-570): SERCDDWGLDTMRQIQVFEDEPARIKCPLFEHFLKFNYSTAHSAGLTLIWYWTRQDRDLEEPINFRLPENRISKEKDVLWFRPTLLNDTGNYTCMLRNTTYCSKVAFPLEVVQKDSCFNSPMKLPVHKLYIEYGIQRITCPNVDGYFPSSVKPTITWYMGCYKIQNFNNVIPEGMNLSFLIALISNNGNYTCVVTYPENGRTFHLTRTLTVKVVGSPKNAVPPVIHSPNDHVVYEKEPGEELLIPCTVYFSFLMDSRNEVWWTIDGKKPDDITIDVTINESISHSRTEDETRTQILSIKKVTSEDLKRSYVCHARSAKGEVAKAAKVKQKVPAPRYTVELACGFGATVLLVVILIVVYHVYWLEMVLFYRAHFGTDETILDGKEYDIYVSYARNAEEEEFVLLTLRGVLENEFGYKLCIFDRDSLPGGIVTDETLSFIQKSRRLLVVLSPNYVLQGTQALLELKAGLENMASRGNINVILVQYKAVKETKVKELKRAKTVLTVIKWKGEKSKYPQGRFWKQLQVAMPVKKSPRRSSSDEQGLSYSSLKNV

B1: #A3C3: mouse anti-hIL-1RAP monoclonal antibody generated by standard hybridoma technique; VH SEQ ID No 2, VL SEQ ID No 4 (antibody, V domains shown)
VH: MGWSCIILFLVATATGVNSQVQLQQPGAELMMPGASVKVSCEASGYTFTDSWMHWVKQRPGQGLEWIGAIDPSDSYTTYNQKFTGKATLSVDESSNTAYMQLSSLTSEDSAVYYCARYYSGSNYISPFPYWGQGTLVTVSA
VL: MESQIQVFVFVFLWLSGVDGDIVMTQSHKFMSTSVGDRVTITCKASLDVSTAVAWYQQKPGQSPKLLIYSASYRYTGVPDRFTGSGSGTDFTFTISSVQAEDLAVYYCQQHYSPPFTFGSGTNLEIK
modifications: Amino acid sequence of chain H (VH) of murine scFv anti-IL-1RAP; Amino acid sequence of chain K (VL) of murine scFv anti-IL-1RAP
- Staining intensity (0 to 3+) (IL-1RAP; Adrenal gland): 0
- Staining intensity (0 to 3+) (IL-1RAP; Cerebellum tissue): 0
- Comments: stained epithelial cells (IL-1RAP; Colon): Epithelial cells (~30%);
- Comments: stained inflammatory elements (IL-1RAP; Colon): (100%)
- Staining intensity (0 to 3+) (IL-1RAP; Colon): 3+
- Staining intensity (0 to 3+) (IL-1RAP; Esophagus): 0
- Staining intensity (0 to 3+) (IL-1RAP; Heart): 0
- Staining intensity (0 to 3+) (IL-1RAP; Kidney): 0
- Staining intensity (0 to 3+) (IL-1RAP; Liver): 0
- Comments: stained elements (IL-1RAP; Lung): Few inflammatory elements
- Staining intensity (0 to 3+) (IL-1RAP; Lung): 2+
- Comments: stained endothelial cells (IL-1RAP; Lymph node): ~30% of endothelial cells
- Staining intensity (0 to 3+) (IL-1RAP; Lymph node): 2+ and 1+
- Staining intensity (0 to 3+) (IL-1RAP; Ovary): 0
- Staining intensity (0 to 3+) (IL-1RAP; Pancreas): 1+
- Staining intensity (0 to 3+) (IL-1RAP; Peripheral nerve): 0
- Staining intensity (0 to 3+) (IL-1RAP; Pituitary gland): 0
- Comments: stained cytotrophoblast cells (IL-1RAP; Placenta): Cytotrophoblast cells (~10%)
- Staining intensity (0 to 3+) (IL-1RAP; Placenta): 0
- Comments: stained endothelial cells (IL-1RAP; Prostate): ~10% of endothelial cells
- Staining intensity (0 to 3+) (IL-1RAP; Prostate): 1+ (2×) and 0 (4×)
- Staining intensity (0 to 3+) (IL-1RAP; Salivary gland): 0
- Comments: stained endothelial cells (IL-1RAP; Skeletal muscle 1): ~10% of endothelial cells
- Staining intensity (0 to 3+) (IL-1RAP; Skeletal muscle, first listing): 1+ and 0 (2×)
- Staining intensity (0 to 3+) (IL-1RAP; Skeletal muscle, second listing): 0
- Staining intensity (0 to 3+) (IL-1RAP; Skin): 0
- Comments: stained epithelial cells (IL-1RAP; Small intestine): Epithelial cells (~30%);
- Comments: stained inflammatory elements (IL-1RAP; Small intestine): (100%)
- Staining intensity (0 to 3+) (IL-1RAP; Small intestine): 2+ and 0 and 1+
- Staining intensity (0 to 3+) (IL-1RAP; Smooth muscle): 0
- Staining intensity (0 to 3+) (IL-1RAP; Spinal cord): 0
- Comments: stained elements (IL-1RAP; Spleen): Necrotic elements
- Staining intensity (0 to 3+) (IL-1RAP; Spleen): 3+
- Comments: stained epithelial cells (IL-1RAP; Stomach 1): cells <10%
- Comments: stained gastric mucosa cells (IL-1RAP; Stomach 1): (~10%); few epithelial
- Staining intensity (0 to 3+) (IL-1RAP; Stomach): 1+ and 0 (2×)
- Staining intensity (0 to 3+) (IL-1RAP; Testis): 0
- Staining intensity (0 to 3+) (IL-1RAP; Thyroid gland): 0
- Staining intensity (0 to 3+) (IL-1RAP; Ureter): 0
- Staining intensity (0 to 3+) (IL-1RAP; Uterine cervix): 0
- recognition of IL-1RAP recombinant protein [1]: recognize the IL-1RAP recombinant protein
- presence of IL-1RAP on AML blasts, percentage (AML blasts): 84.27±17.4%
